Experimental data reported in publication PMC11381544 (Nature Communications, 2024).

System: CRTAP
Test: Strep-tactin pulldown, P3H1 mutants with CRTAP
Type: binding, human
Settings: P3H1 mutations at the X-interface, Fig. 2g

Row | Molecule | formation of the PCP complex
1 | D106A/D^P3H1 (protein, UniProt Q32P28 23-736, looked up, variant D106A) Prolyl 3-hydroxylase 1: EVESEAGWGMVTPDLLFAEGTAAYARGDWPGVVLSMERALRSRAALRALRLRCRTQCAADFPWELDPDWSPSPAQASGAAALRALSFFGGLLRRAACLRRCLGPPAAHSLSEEMELEFRKRSPYNYLQVAYFKINKLEKAVAAAHTFFVGNPEHMEMQQNLDYYQTMSGVKEADFKDLETQPHMQEFRLGVRLYSEEQPQEAVPHLEAALQEYFVAYEECRALCEGPYDYDGYNYLEYNADLFQAITDHYIQVLNCKQNCVTELASHPSREKPFEDFLPSHYNYLQFAYYNIGNYTQAVECAKTYLLFFPNDEVMNQNLAYYAAMLGEEHTRSIGPRESAKEYRQRSLLEKELLFFAYDVFGIPFVDPDSWTPEEVIPKRLQEKQKSERETAVRISQEIGNLMKEIETLVEEKTKESLDVSRLTREGGPLLYEGISLTMNSKLLNGSQRVVMDGVISDHECQELQRLTNVAATSGDGYRGQTSPHTPNEKFYGVTVFKALKLGQEGKVPLQSAHLYYNVTEKVRRIMESYFRLDTPLYFSYSHLVCRTAIEEVQAERKDDSHPVHVDNCILNAETLVCVKEPPAYTFRDYSAILYLNGDFDGGNFYFTELDAKTVTAEVQPQCGRAVGFSSGTENPHGVKAVTRGQRCAIALWFTLDPRHSERDRVQADDLVKMLFSPEEMDLSQEQPLDAQQGPPEPAQESLSGSESKPKDEL | significantly decrease the formation of the PCP complex
2 | R76D^P3H1 (protein) EVESEAGWGMVTPDLLFAEGTAAYARGDWPGVVLSMERALRSRAALRALRLRCDTQCAADFPWELDPDWSPSPAQASGAAALRDLSFFGGLLRRAACLRRCLGPPAAHSLSEEMELEFRKRSPYNYLQVAYFKINKLEKAVAAAHTFFVGNPEHMEMQQNLDYYQTMSGVKEADFKDLETQPHMQEFRLGVRLYSEEQPQEAVPHLEAALQEYFVAYEECRALCEGPYDYDGYNYLEYNADLFQAITDHYIQVLNCKQNCVTELASHPSREKPFEDFLPSHYNYLQFAYYNIGNYTQAVECAKTYLLFFPNDEVMNQNLAYYAAMLGEEHTRSIGPRESAKEYRQRSLLEKELLFFAYDVFGIPFVDPDSWTPEEVIPKRLQEKQKSERETAVRISQEIGNLMKEIETLVEEKTKESLDVSRLTREGGPLLYEGISLTMNSKLLNGSQRVVMDGVISDHECQELQRLTNVAATSGDGYRGQTSPHTPNEKFYGVTVFKALKLGQEGKVPLQSAHLYYNVTEKVRRIMESYFRLDTPLYFSYSHLVCRTAIEEVQAERKDDSHPVHVDNCILNAETLVCVKEPPAYTFRDYSAILYLNGDFDGGNFYFTELDAKTVTAEVQPQCGRAVGFSSGTENPHGVKAVTRGQRCAIALWFTLDPRHSERDRVQADDLVKMLFSPEEMDLSQEQPLDAQQGPPEPAQESLSGSESKPKDEL | significantly decrease the formation of the PCP complex
